Data published in US8591913B2, “Methods of decreasing adipose tissue” (Toru Miyazaki, priority 2009, dated 2013).

Key:
[1] = tested on: adipocytes in the adipose tissue of AIM-/- mice; experiment: Endocytosis of injected rAIM into adipose tissue of AIM-/- mice (histology); assay type: in vivo, mouse; conditions: 3 hours
Protocol: Further, mouse rAIM was directly injected into epididymal adipose tissue in obese AIM^−/− mice, and the adipose tissue was histologically analyzed. That is, total 100 μg of rAIM was directly injected into several sites of the epididymal adipose tissue. At 3 hours after the injection, tissue sections from the epididymal adipose tissue were made, and the tissue sections were stained with the anti-AIM antibody and the anti-macrophage antibody.
In addition, rAIM was systemically administered by intravenous injection to AIM^−/− mice, and subsequently adipose tissues were histologically analyzed. That is, 200 μg of rAIM was systemically administered by the intravenous injection to the AIM^−/− mice. At 3 hours after the injection, tissue sections were made from the epididymal adipose tissue, and the tissue sections were stained with the anti-AIM antibody and the anti-macrophage antibody.

CD36 = molecular target: T1, CD36 (Mus musculus, UniProt Q08857); experiment: Incorporation of intravenously injected rAIM into adipose tissue of CD36-/- and CD36+/+ mice; assay type: in vivo; conditions: mouse rAIM 300 μg/mouse intravenous, 16 hours, epididymal adipose tissue
T1 construct: endogenous in cells; host or cells: differentiated 3T3-L1 adipocytes
T1 sequence (Q08857 whole entry): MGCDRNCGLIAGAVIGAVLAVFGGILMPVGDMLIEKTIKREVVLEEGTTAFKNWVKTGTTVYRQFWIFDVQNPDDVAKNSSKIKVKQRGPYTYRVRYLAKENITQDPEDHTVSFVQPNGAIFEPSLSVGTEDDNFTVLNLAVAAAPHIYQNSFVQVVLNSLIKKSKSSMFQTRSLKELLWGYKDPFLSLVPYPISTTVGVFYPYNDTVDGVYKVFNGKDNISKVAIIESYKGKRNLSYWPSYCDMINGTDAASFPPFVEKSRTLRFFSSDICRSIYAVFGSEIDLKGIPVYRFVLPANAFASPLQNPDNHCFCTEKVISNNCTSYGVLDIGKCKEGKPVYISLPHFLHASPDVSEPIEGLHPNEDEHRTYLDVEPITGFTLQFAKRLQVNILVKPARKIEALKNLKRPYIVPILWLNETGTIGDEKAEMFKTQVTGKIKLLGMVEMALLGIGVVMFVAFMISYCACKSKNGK
Protocol: Mouse rAIM was intravenously injected into each of a CD36^−/− mouse which was deficient for CD36 and a wild-type CD36^+/+ mouse, and the incorporation of rAIM into the adipose tissues was analyzed. That is, an injection prepared by dissolving rAIM in PBS was intravenously injected into each of the CD36^−/− mouse and the CD36^+/+ mouse (300 μg/mouse). At 16 hours after the injection, the mice were sacrificed, and tissue sections were made from their epididymal adipose tissue. Then, the tissue sections were stained with an anti-AIM antibody.

AIM-/- mice = experiment: Intraperitoneal rAIM in AIM-/- mice given HFD; assay type: in vivo, mouse
Protocol: While giving HFD to AIM^−/− mice for 15 weeks, mouse rAIM was intraperitoneally injected into the AIM^−/− mice for the last 9 weeks to examine whether the administration of rAIM inhibits the increase of the adipose tissue mass. That is, rAIM was intraperitoneally injected three times a week into the AIM^−/− mice ((150 μg/injection/mouse)×(three times/week)=(450 μg/mouse/week)) over the last 9 weeks, and the body weight, the weight of the visceral fat, and the weight of the subcutaneous fat were measured in the 15th week. The body weight, the weight of the visceral fat, and the weight of the subcutaneous fat were also measured in the AIM^−/− mice as the control to which BSA (bovine serum albumin) had been intraperitoneally administered in the same administration schedule.
FIG. 30A, FIG. 30B, and FIG. 30C show the results (n=3) of measuring the body weight (Body) (g), the weight of the visceral adipose tissue (Visceral fat) (g), and the amount of the subcutaneous adipose tissue (Subcutaneous fat) (g) in the AIM/mice to which BSA was administered (BSA) and the AIM^−/− mice to which rAIM was administered (rAIM), respectively.
Further, mRNA levels of FSP27, perilipin, and adipophilin were evaluated in each of the AIM^−/− mice to which BSA was administered and the AIM^−/− mice to which rAIM was administered. The mRNA levels were measured using RNA isolated from epididymal fat and using QPCR.
FIG. 31 illustrates the mRNA levels (n=3) of FSP27, perilipin, and adipophilin evaluated in each of the AIM^−/− mice to which BSA was administered (BSA) and the AIM^−/− mice to which rAIM was administered (rAIM). It should be noted that values illustrated in FIG. 31 were normalized to GAPDH and represented as expressions relative to the results in the mice to which BSA had been injected.

obese AIM-/- mice = experiment: Intravenous administration of AIM to obese AIM-/- mice; assay type: in vivo, mouse
Protocol: Obese AIM^−/− mice were produced by giving HFD for 20 weeks or more. Meanwhile, a purified recombinant mouse AIM protein was prepared, and an AIM solution in which the AIM protein had been dissolved at a concentration of 0.2 mg/mL in phosphate buffered saline (PBS, pH 7.4) was prepared as an injection. Then, the AIM injection was administered to the mice from the tail vein twice a week for 4 weeks.
A dosage was 1 μg per 1 g of the body weight of the mouse. The dosage was determined based on the AIM concentration in the culture medium in the above-mentioned in vitro experiments, by considering that the AIM concentration in the blood of the mouse was a similar level to the AIM concentration in the culture medium.
In addition, as a control, the same amount of bovine serum albumin (BSA) was administered via the tail vein in the same schedule to the obese AIM^−/− mice produced by giving HFD for 20 weeks or more. Then, the body weight of the mice after being administered was measured, and the visceral white adipose tissue was collected and its weight was measured.
FIG. 22A and FIG. 22B show the results of observing adipose tissue sections stained with hematoxylin and eosin (HE) under a microscope.

[2] = epididymal fat, QPCR, rAIM ip versus BSA
[3] = mouse rAIM ip 150 μg/injection/mouse, three times/week, last 9 of 15 weeks HFD, versus BSA
[4] = AIM iv versus albumin, HE-stained sections
[5] = mouse AIM 1 μg per 1 g body weight, tail vein, twice a week for 4 weeks, versus BSA

| Molecule | staining of macrophages in the adipose tissues with the anti-AIM antibody ([1]; 200 μg rAIM intravenous injection) | signals from the endocytosed rAIM in the adipocytes in the adipose tissues ([1]; 200 μg rAIM intravenous injection, levels lower than after direct injection) | endocytosis of exogenous rAIM into adipocytes in the adipose tissue ([1]; total 100 μg mouse rAIM directly injected into epididymal adipose tissue of obese AIM-/- mice) | amount of rAIM internalized into the adipocytes, CD36-/- mouse compared with CD36+/+ mouse (CD36) | mRNA level of FSP27 (AIM-/- mice; [2]) | mRNA level of adipophilin (AIM-/- mice; [2]) | mRNA level of perilipin (AIM-/- mice; [2]) | body weight gain (AIM-/- mice; [3]) | increase in weight of the subcutaneous fat (AIM-/- mice; [3]) | increase in weight of the visceral fat (AIM-/- mice; [3]) | accumulation of macrophages in the adipose tissues (obese AIM-/- mice; [4]) | size of adipocytes in the adipose tissues (obese AIM-/- mice; [4]) | amount of food intake (obese AIM-/- mice; administration of AIM, iv) | histology of adipose tissues, observed locally (in a spotty pattern) (obese AIM-/- mice; mouse AIM 1 μg per 1 g body weight, tail vein, twice a week for 4 weeks) | body weight (obese AIM-/- mice; [5]) | total weight of the adipose tissue (obese AIM-/- mice; [5]) | lipolysis in the adipose tissues of the obese mouse (obese AIM-/- mice; systemic intravenous administration of purified AIM protein) |
| --- | --- | --- | --- | --- | --- | --- | --- | --- | --- | --- | --- | --- | --- | --- | --- | --- | --- |
| mouse AIM: protein consisting of the amino acid sequence shown in SEQ ID NO: 5; recombinant, purified from HEK293T culture supernatant (protein, mouse, recombinant, purified from HEK293T culture supernatant) MAPLFNLMLAILSIFVGSCFSESPTKVQLVGGAHRCEGRVEVEHNGQWGTVCDDGWDRRDVAVVCRELNCGAVIQTPRGASYQPPASEQRVLIQGVDCNGTEDTLAQCELNYYVFDCSHEEDAGAQCENPDSDLLFIPEDVRLVDGPGHCQGRVEVLHQSQWSTVCKAGWNLQVSKVVCRQLGCGRALLTYGSCNKNTQGKGPIWMGKMSCSGQEANLRSCLLSRLENNCTHGEDTWMECEDPFELKLVGGDTPCSGRLEVLHKGSWGSVCDDNWGEKEDQVVCKQLGCGKSLHPSPKTRKIYGPGAGRIWLDDVNCSGKEQSLEFCRHRLWGYHDCTHKEDVEVICTDFDV | also stained | detected | endocytosed into adipocytes | remarkably smaller | low | low | low | remarkably small | remarkably small | remarkably small | – | – | – | – | – | – | – |
| AIM: apoptosis inhibitor of macrophage, secretory protein with three SRCR domains; recombinant mouse and human AIM in Example 2, mouse AIM in Examples 3-16 (protein) ESPTKVQLVGGAHRCEGRVEVEHNGQWGTVCDDGWDRRDVAVVCRELNCGAVIQTPRGASYQPPASEQRVLIQGVDCNGTEDTLAQCELNYYVFDCSHEEDAGAQCENPDSDLLFIPEDVRLVDGPGHCQGRVEVLHQSQWSTVCKAGWNLQVSKVVCRQLGCGRALLTYGSCNKNTQGKGPIWMGKMSCSGQEANLRSCLLSRLENNCTHGEDTWMECEDPFELKLVGGDTPCSGRLEVLHKGSWGSVCDDNWGEKEDQVVCKQLGCGKSLHPSPKTRKIYGPGAGRIWLDDVNCSGKEQSLEFCRHRLWGYHDCTHKEDVEVICTDFDV | – | – | – | – | – | – | – | – | – | – | remarkable accumulation | remarkably reduced | No change | shrinkage and lysis of adipocytes | no significant difference | no significant difference | induced lipolysis |
